Laboratory results published in publication PMC5522423, “Influence of C-terminal truncation of murine Serum amyloid A on fibril structure” (Scientific Reports, 2017).

Target: the molecule itself
Experiment: in vitro fibril formation (negative-stain TEM, with ThT fluorescence, Congo red absorption and ATR-FTIR of the fibrils); 80 µM protein in 50 mM Tris buffer (pH 8.0), 7 days at 37 °C, 300 rpm; self-assembly into amyloid-like fibrils

B1: full-length murine serum amyloid A 1.1, SAA(1–103) (natural protein, mouse, UniProt P05367 20-122, looked up)
chain: GFFSFIGEAFQGAGDMWRAYTDMKEAGWKDGDKYFHARGNYDAAQRGPGGVWAAEKISDARESFQEFFGRGHEDTMADQEANRHGRSGKDPNYYRPPGLPAKY
notes: Serum amyloid A 1.1 (SAA1.1), mouse, 103 residues; also called murine SAA1.1; mSAA; source: E. coli RV308 (pMal-c2X vector), purified as described previously, lyophilized
- binding result: binds
